Results on eight sequences are retold here after the Immune Epitope Database (IEDB).

One may read the Kd as the free concentration of one partner at which half of the binding sites on the other are occupied at equilibrium, for simple one-to-one binding.

Assay [1] deals with HLA-A*01:01. The assay is described as follows: IEDB peptide-MHC binding, purified MHC/direct/fluorescence; filed as Kd, often an IC50 or EC50 that approximates it; ≥ and ≤ were set here for values at or beyond the usual limits of such assays.
In assay [2] the target is HLA-A*29:02. Described as above. The note with it: source organism: Mammarenavirus machupoense.
The target of another assay is HLA-A*80:01. The description is as above.
In the next assay the target is HLA-B*15:42. The assay is described as follows: IEDB peptide-MHC binding, purified MHC/competitive/fluorescence; filed as Kd, often an IC50 or EC50 that approximates it; ≥ and ≤ were set here for values at or beyond the usual limits of such assays.
The target in another assay is HLA-B*45:06. Described as above.
A further assay concerns the target HLA-B*83:01. The description is as above.
The target of a further assay is HLA-A*26:01. The experiment in a line: IEDB peptide-MHC binding, purified MHC/competitive/radioactivity; filed as Kd, often an IC50 or EC50 that approximates it; ≥ and ≤ were set here for values at or beyond the usual limits of such assays. The note with it: source organism: Mammarenavirus lassaense.
Assay [3] deals with HLA-A*29:02. The description is as above. Conditions: source organism: Mammarenavirus lassaense.
Assay [4] concerns the target HLA-A*30:01. Described as above. The note with it: source organism: Mammarenavirus lassaense.
The target of another assay is HLA-A*30:02. The assay is described as above. Conditions: source organism: Mammarenavirus lassaense.
A further assay addresses HLA-A*32:01. The description is as above.
The target in assay [5] is HLA-A*24:03. The assay is described as follows: IEDB peptide-MHC binding, purified MHC/competitive/fluorescence; filed as Kd, often an IC50 or EC50 that approximates it; ≥ and ≤ were set here for values at or beyond the usual limits of such assays. The note with it: source organism: Encephalitozoon cuniculi GB-M1.
The target of assay [6] is HLA-A*30:01. Described as above.
In assay [7] the target is HLA-A*01:01. The assay is described as above. Conditions: source organism: Homo sapiens.
For a further assay, the target named is HLA-A*23:01. The assay is described as follows: IEDB peptide-MHC binding, purified MHC/direct/fluorescence; filed as Kd, often an IC50 or EC50 that approximates it; ≥ and ≤ were set here for values at or beyond the usual limits of such assays. The note with it: source organism: Amur virus.
For another assay, the target named is HLA-A*24:02. The assay is described as above.
The target in assay [8] is HLA-A*24:03. The description is as above. Conditions: source organism: Amur virus.
For the next assay, the target named is HLA-A*02:01. The assay is described as above.
A further assay addresses HLA-A*02:03. Described as above.
The target in a further assay is HLA-A*02:06. Described as above.
Another assay has as its target HLA-A*02:11. The description is as above. Conditions: source organism: Salmonella enterica subsp. arizonae serovar 62:z4,z23:-.
Another assay has as its target HLA-A*02:12. Described as above.
The target in the next assay is HLA-A*02:19. The description is as above.
The target in the next assay is HLA-A*03:01. The description is as above.
For another assay, the target named is HLA-A*11:01. The assay is described as above.
The target of the next assay is HLA-A*31:01. The assay is described as above.
In a further assay the target is HLA-A*69:01. Described as above. Conditions: source organism: Yersinia enterocolitica.
For the next assay, the target named is HLA-B*07:02. The description is as above.
The next assay concerns the target HLA-B*08:01. Described as above. The note with it: source organism: Salmonella enterica subsp. arizonae serovar 62:z4,z23:-.
Another assay has as its target HLA-B*15:01. The description is as above.
The next assay has as its target HLA-B*27:05. The assay is described as above.
In another assay the target is HLA-B*40:01. The assay is described as above.
The target in the next assay is HLA-B*44:02. The assay is described as above.
The target of the next assay is HLA-B*58:01. The description is as above.
The target in a further assay is HLA-C*06:02. The assay is described as above. The note with it: source organism: Yersinia pestis Nepal516.
The next assay deals with HLA-B*15:17. Described as above. Conditions: source organism: dengue virus type 4.
The next assay deals with HLA-B*57:01. The description is as above. The note with it: source organism: dengue virus type 4.
Another assay concerns the target HLA-A*32:07. The assay is described as follows: IEDB peptide-MHC binding, purified MHC/competitive/fluorescence; filed as Kd, often an IC50 or EC50 that approximates it; ≥ and ≤ were set here for values at or beyond the usual limits of such assays. The note with it: source organism: dengue virus type 4.
The next assay addresses HLA-A*32:15. The assay is described as above. Conditions: source organism: dengue virus type 4.
In another assay the target is HLA-A*68:23. Described as above. The note with it: source organism: dengue virus type 4.
Another assay deals with HLA-C*14:02. The assay is described as above. The note with it: source organism: dengue virus type 4.
For a further assay, the target named is HLA-B*46:01. The experiment in a line: IEDB peptide-MHC binding, purified MHC/direct/fluorescence; filed as Kd, often an IC50 or EC50 that approximates it; ≥ and ≤ were set here for values at or beyond the usual limits of such assays. Conditions: source organism: Brucella melitensis.
Setting [9] is: source organism: Mammarenavirus lassaense.
Where [10] appears, read: source organism: Yersinia enterocolitica.
Setting [11] is: source organism: Salmonella enterica subsp. arizonae serovar 62:z4,z23:-.
Where [12] appears, read: source organism: dengue virus type 4.
Where [13] appears, read: source organism: Brucella melitensis.
The mark [14] stands for this setting: source organism: Brucella ovis ATCC 25840.

For the sequence ISEMLSKEY, the Kd in the assay with HLA-A*01:01 [1] (source organism: Mammarenavirus cupixiense) was 545 nM; in the assay with HLA-A*29:02 [2] it was 179 nM; in the assay with HLA-A*80:01 (source organism: Mammarenavirus machupoense), 8000 nM.
As for LIDGRTSFY, the Kd was 0.9 nM in the assay with HLA-A*01:01 [1] (setting [9]); 14.8 nM with HLA-A*80:01 (setting [9]); at least 5000 nM with HLA-B*15:42 (setting [9]); at least 5000 nM with HLA-B*45:06 (setting [9]); at least 5000 nM with HLA-B*83:01 (setting [9]); 14400 nM with HLA-A*26:01. For the same sequence, the Kd in the assay with HLA-A*29:02 [3] is 1150 nM; with HLA-A*30:01 [4], at least 51300 nM; with HLA-A*30:02 it was 1210 nM; in the assay with HLA-A*32:01 (setting [9]), at least 77800 nM.
Regarding RVLENTHIF, the Kd turned out to be 2.9 nM with HLA-A*24:03 [5] and 222 nM with HLA-A*30:01 [6] (source organism: Encephalitozoon cuniculi GB-M1).
In the case of CSDSDGLAP, the Kd in the assay with HLA-A*80:01 (source organism: Homo sapiens), in the assay with HLA-A*01:01 [7] and with HLA-A*30:01 [6] (source organism: Homo sapiens) was at least 20000 nM in each case.
ESPSSIWVF: the Kd in the assay with HLA-A*23:01 was determined as 145 nM; with HLA-A*24:02 (source organism: Amur virus) it was 5.8 nM; with HLA-A*24:03 [8], 1220 nM; with HLA-A*30:01 [6] (source organism: Hantaan virus 76-118), 2330 nM.
Regarding RIYSHIAPY, the Kd is at least 20000 nM in the assay with HLA-A*01:01 [1] (setting [10]); 1970 nM with HLA-A*02:01 (setting [10]); 562 nM with HLA-A*02:03 (setting [11]); 221 nM with HLA-A*02:06 (setting [11]); 126 nM with HLA-A*02:11; 475 nM with HLA-A*02:12 (setting [11]). For the same sequence, the Kd was at least 20000 nM with HLA-A*02:19 (setting [11]); 31.2 nM with HLA-A*03:01 (setting [10]); 36.8 nM with HLA-A*11:01 (setting [10]); 46.7 nM with HLA-A*31:01 (setting [10]); at least 20000 nM in the assay with HLA-A*69:01; at least 20000 nM with HLA-B*07:02 (setting [10]). Moreover, the Kd is at least 20000 nM with HLA-B*08:01; 109 nM with HLA-B*15:01 (setting [10]); 723 nM in the assay with HLA-B*27:05 (setting [10]); at least 20000 nM with HLA-B*40:01 (setting [10]); at least 20000 nM with HLA-B*44:02 (setting [10]); 58 nM with HLA-B*58:01 (setting [10]). In addition, the Kd in the assay with HLA-C*06:02 was at least 20000 nM.
In the case of STMPLVMAW, the Kd in the assay with HLA-B*15:17 is at most 1 nM; in the assay with HLA-B*57:01, 5.2 nM; in the assay with HLA-A*32:07, at most 1 nM; in the assay with HLA-A*32:15, 22.7 nM; with HLA-A*68:23 it was 0.6 nM; with HLA-B*15:42 (setting [12]), at least 5000 nM. In addition, the Kd in the assay with HLA-B*45:06 (setting [12]) was at least 5000 nM; in the assay with HLA-B*83:01 (setting [12]), 1140 nM; with HLA-C*14:02, 10.6 nM; with HLA-A*32:01 (source organism: Dengue virus 4 Philippines/H241/1956), 1.69 nM.
As to CTDPPLLSV, the Kd with HLA-A*01:01 [1] (setting [13]) is 6980 nM; with HLA-A*02:01 (setting [13]), 526 nM; in the assay with HLA-A*02:03 (setting [14]) it was 1050 nM; with HLA-A*02:06 (setting [14]), 23 nM; with HLA-A*02:12 (setting [14]), 529 nM; with HLA-A*02:19 (setting [14]), at least 20000 nM. Besides, the dissociation constant Kd in the assay with HLA-A*03:01 (setting [13]), with HLA-A*11:01 (setting [13]), with HLA-A*24:02 (setting [13]), with HLA-A*31:01 (setting [13]), with HLA-B*07:02 (setting [13]) and in the assay with HLA-B*15:01 (setting [13]) was at least 20000 nM each time. Further, the Kd with HLA-B*27:05 (setting [13]), with HLA-B*40:01 (setting [13]), with HLA-B*44:02 (setting [13]), in the assay with HLA-B*46:01 and with HLA-B*58:01 (setting [13]) was at least 20000 nM throughout.
